IntAct's records for PubMed 26886794

B1: Histone-lysine N-methyltransferase SETD1B (Homo sapiens), Q9UPS6-2 (parent)
chain: MENSHPPHHHHQQPPPQPGPSGERRNHHWRSYKLMIDPALKKGHHKLYRYDGQHFSLAMSSNRPVEIVEDPRVVGIWTKNKELELSVPKFKIDEFYVGPVPPKQVTFAKLNDNIRENFLRDMCKKYGEVEEVEILYNPKTKKHLGIAKVVFATVRGAKDAVQHLHSTSVMGNIIHVELDTKGETRMRFYELLVTGRYTPQTLPVGELDAVSPIVNETLQLSDALKRLKDGGLSAGCGSGSSSVTPNSGGTPFSQDTAYSSCRLDTPNSYGQGTPLTPRLGTPFSQDSSYSSRQPTPSYLFSQDPAVTFKARRHESKFTDAYNRRHEHHYVHNSPAVTAVAGATAAFRGSSDLPFGAVGGTGGSSGPPFKAQPQDSATFAHTPPPAQATPAPGFKSAFSPYQTPVAHFPPPPEEPTATAAFGARDSGEFRRAPAPPPLPPAEPLAKEKPGTPPGPPPPDTNSMELGGRPTFGWSPEPCDSPGTPTLESSPAGPEKPHDSLDSRIEMLLKEQRTKLLFLREPDSDTELQMEGSPISSSSSQLSPLAPFGTNSQPGFRGPTPPSSRPSSTGLEDISPTPLPDSDEDEELDLGLGPRPPPEPGPPDPAGLLSQTAEVALDLVGDRTPTSEKMDEGQQSSGEDMEISDDEMPSAPITSADCPKPMVVTPGAAAVAAPSVLAPTLPLPPPPGFPPLPPPPPPPPPQPGFPMPPPLPPPPPPPPPAHPAVTVPPPPLPAPPGVPPPPILPPLPPFPPGLFPVMQVDMSHVLGGQWGGMPMSFQMQTQVLSRLMTGQGACPYPPFMAAAAAAASAGLQFVNLPPYRGPFSLSNSGPGRGQHWPPLPKFDPSVPPPGYMPRQEDPHKATVDGVLLVVLKELKAIMKRDLNRKMVEVVAFRAFDEWWDKKERMAKASLTPVKSGEHKDEDRPKPKDRIASCLLESWGKGEGLGYEGLGLGIGLRGAIRLPSFKVKRKEPPDTTSSGDQKRLRPSTSVDEEDEESERERDRDMADTPCELAKRDPKGVGVRRRPARPLELDSGGEEDEKESLSEEQESTEEEEEAEEEEEEEDDDDDDSDDRDESENDDEDTALSEASEKDEGDSDEEETVSIVTSKAEATSSSESSESSEFESSSESSPSSSEDEEEVVAREEEEEEEEEEMVAEESMASAGPEDFEQDGEEAALAPGAPAVDSLGMEEEVDIETEAVAPEERPSMLDEPPLPVGVEEPADSREPPEEPGLSQEGAMLLSPEPPAKEVEARPPLSPERAPEHDLEVEPEPPMMLPLPLQPPLPPPRPPRPPSPPPEPETTDASHPSVPPEPLAEDHPPHTPGLCGSLAKSQSTETVPATPGGEPPLSGGSSGLSLSSPQVPGSPFSYPAPSPSLSSGGLPRTPGRDFSFTPTFSEPSGPLLLPVCPLPTGRRDERSGPLASPVLLETGLPLPLPLPLPLPLALPAVLRAQARAPTPLPPLLPAPLASCPPPMKRKPGRPRRSPPSMLSLDGPLVRPPAGAALGRELLLLPGQPQTPVFPSTHDPRTVTLDFRNAGIPAPPPPLPPQPPPPPPPPPVEPTKLPFKELDNQWPSEAIPPGPRGRDEVTEEYMELAKSRGPWRRPPKKRHEDLVPPAGSPELSPPQPLFRPRSEFEEMTILYDIWNGGIDEEDIRFLCVTYERLLQQDNGMDWLNDTLWVYHPSTSLSSAKKKKRDDGIREHVTGCARSEGFYTIDKKDKLRYLNSSRASTDEPPADTQGMSIPAQPHASTRAGSERRSEQRRLLSSFTGSCDSDLLKFNQLKFRKKKLKFCKSHIHDWGLFAMEPIAADEMVIEYVGQNIRQVIADMREKRYEDEGIGSSYMFRVDHDTIIDATKCGNFARFINHSCNPNCYAKVITVESQKKIVIYSKQHINVNEEITYDYKFPIEDVKIPCLCGSENCRGTLN

Variants of: B1
Conditions: with ASH2L

Variant	effect of a mutation on the interaction
R1819A	disrupting interaction strength
